Source: patent US20200360469A1 (published 2020)

Biological target: full-length (FL) BRAF^WT, 6x-HIS-BRAF-WT/FLAG (human, UniProt P15056 2-766)
Test: kinase activity inhibition (ELISA); with 0.1 nM Dabrafenib

full-length (FL) BRAF^WT, 6x-HIS-BRAF-WT/FLAG, sequence (P15056 2-766): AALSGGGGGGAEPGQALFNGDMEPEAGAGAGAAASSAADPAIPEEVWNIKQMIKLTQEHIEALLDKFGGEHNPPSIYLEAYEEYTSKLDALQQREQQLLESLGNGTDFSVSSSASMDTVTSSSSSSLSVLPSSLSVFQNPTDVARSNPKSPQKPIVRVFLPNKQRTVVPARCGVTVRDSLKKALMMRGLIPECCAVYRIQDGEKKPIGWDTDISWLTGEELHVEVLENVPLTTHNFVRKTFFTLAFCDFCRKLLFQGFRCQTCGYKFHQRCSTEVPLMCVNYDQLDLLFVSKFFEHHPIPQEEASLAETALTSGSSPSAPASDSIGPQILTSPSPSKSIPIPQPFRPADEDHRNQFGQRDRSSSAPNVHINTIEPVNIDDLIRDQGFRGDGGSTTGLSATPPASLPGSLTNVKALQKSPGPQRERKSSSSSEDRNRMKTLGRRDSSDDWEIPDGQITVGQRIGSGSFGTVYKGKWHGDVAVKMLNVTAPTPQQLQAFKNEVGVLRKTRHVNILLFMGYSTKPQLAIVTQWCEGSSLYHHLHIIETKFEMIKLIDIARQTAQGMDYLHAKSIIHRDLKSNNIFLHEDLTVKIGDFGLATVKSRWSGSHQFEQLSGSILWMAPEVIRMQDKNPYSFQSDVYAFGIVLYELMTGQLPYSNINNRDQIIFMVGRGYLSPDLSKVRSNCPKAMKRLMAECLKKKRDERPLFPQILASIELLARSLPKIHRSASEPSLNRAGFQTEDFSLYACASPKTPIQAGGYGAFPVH

B1: braftide (peptide)
peptide: TRHVNILLFM
IC50: 280 nM
